Test results taken from PMC10855774, “Role of Spexin in White Adipose Tissue Thermogenesis under Basal and Cold-Stimulated Conditions” (International Journal of Molecular Sciences, 2024).

Key:
[1] = tested on: beige precursors (PDGFRα+; EBF2+); experiment: Beige precursors (PDGFRα+; EBF2+) in the SVF by flow cytometry; format: in vivo, mice; settings: SPX for 3 days prior to cold exposure; n = 4, t-test
Protocol: Fresh EAT pads were dissected, weighed, and digested with collagenase, as previously reported. Briefly, fat tissue was minced and digested using 1 mg/mL of the collagenase solution in DMEM (at 37 °C for 40–60 min). After centrifugation (1000 rpm for 15 min), the SVF pellets were filtered (in a 50-µm-mesh nylon cloth) and washed with DMEM (x3). SVF cells were then resuspended in DMEM supplemented with 10% (v/v) FBS, HEPES ([…]), 100 IU/mL of penicillin, and 100 µg/mL of streptomycin (basal medium) and reserved for the flow cytometry protocol.
The SVF was prepared as reported above and counted and filtered through a 70-μM cell strainer. To block unspecific binding, the cells were resuspended in 10% inactivated FBS in FACS buffer (1% BSA in PBS) for 10 min. Then, the cells were incubated with the surface antibody anti-Pdgfrα (CD140a)-PE/Cy7 (1:200, BioLegend, San Diego, CA, USA) and washed twice with FACS buffer, followed by centrifugation (300× g, 5 min). Fixation was performed with 2% paraformaldehyde in PBS for 20 min at room temperature. After washing, the cells were subjected to permeabilization with 0.1 % Triton X100 in PBS for 15 min at room temperature. […] The samples were analyzed on a FACS Calibur flow cytometer (BD bioscience, Franklin Lakes, NJ, USA). […]

[2] = Plasma SPX levels (ELISA) after SPX injection; format: in vivo, mice
Protocol: Circulating glucose (Glu) and triglyceride (Tg) levels were measured using commercial kits (Wiener Lab., Rosario, Argentina). Plasma SPX was measured using a commercial ELISA kit (SPX: Phoenix pharmaceutical EK-023-81).
Supplementary figure 1. SPX levels (ng/ml, EIA Phoe nix pharmaceutical) after intraperitoneal injec tion with SPX (29 µg/kg). or Vehicle in mic e Different time points we r e evaluated after ip. Injections (10, 20, 60, 180, 360 minutes).
Supplementary Figure 2. ucp1 (a), pgc1α (b) and cox8b (c) mRNA expression in B AT. In all case s, t wo -wa y A N O VA wa s performed for factor (S or C) and interaction (S x C) analysis and deta iled below the graph only when s ig n if ica nt .. When interaction is statist icall y s ig n if ica nt , group to gr oup comparison wa s performed by Bonferroni test. ++++ P<0.0001 vs. CTR and ***P<0.001 vs. CTR-C (n=4- 6 m ice per group). […]

preadipocytes = settings: cited from earlier work
From the text: (§1) Beige adipocytes may be generated through two different mechanisms: adipogenesis, de novo, from precursor stem cells, and the transdifferentiation process, which involves the conversion/reprogramming of white adipocytes. Regarding the former, different studies have shown the presence of different adipocyte precursors that have different thermogenic capacities when differentiated in vitro [22]. Other studies have observed that PDGFRα+ cells are bipotential precursors, being able to differentiate into either white or beige adipocytes depending on the stimulus. Then, only PDGFRα+ and EBF2+ cell ...

3T3-L1 adipocytes = settings: in vitro; cited from earlier work
From the text: as §1

galr2 = galr2 mRNA expression in AT depots (qRT-PCR); format: in vivo, mice; settings: RT and cold
Protocol: Normal adult male C57BL/6 mice (four months of age) were kept in a temperature-controlled environment (20–22 °C and a fixed 12 h light/12 h dark cycle; lights on at 07:00 h) and fed ad libitum with Purina commercial rat/mouse chow (Ganave, Buenos Aires, Argentina, L0723/1). Mice were injected with SPX or PBS (29 µg/kg/day, Tocris, Bristol, UK) for ten days (the SPX and CTR groups, respectively). On the third day of the protocol, each group was subdivided into two other groups: one exposed to cold (4 °C, CTR-C and SPX-C, n = 12 mice for each group) and another one housed at RT (CTR and SPX, n = 15 mice for each group) (Figure 1). Food intake and body weight were measured every day. On the experimental day (day 10), the mice were euthanized under non-fasting conditions (08:00 to 09:00 h), and their trunk blood was collected; plasma samples were then frozen (–80 °C) until the metabolite measurement. Inguinal AT (IAT, subcutaneous depot), epididymal AT (EAT, visceral depot), and brown AT (BAT, subcutaneous depot) were aseptically dissected and weighed. These depots were kept at –80 °C for further procedures. Animals were euthanized according to protocols for animal use, in agreement with the NIH guidelines for the care and use of experimental animals. All experiments were approved by our Institutional Animal Care Committee (Approval code: 6NE-2023).
Total RNA was isolated from cells by the Trizol extraction method (Invitrogen, Life Technology, Waltham, MA, USA) and reverse-transcribed using random primers (250 ng) and RevertAid Reverse Transcriptase (200 U/µL, Thermo Scientific, Waltham, MA, USA). […] The expression levels were analyzed for β-actin (βactin, […] gene), Uncoupling Protein 1 (ucp1), proliferator-activated receptor gamma coactivator-1 alpha (pgc1α), cytochrome-c oxidase subunit 8b (cox8b), galanin receptors 2 and 3 (galr2 and galr3, respectively), and Spexin (spx). […] The relative changes in the expression level of each gene (ΔΔCt) were calculated by the ΔCt method.

B1: Spexin (peptide, UniProt Q9BT56 27-116, looked up)
Spexin: APQRLLERRNWTPQAMLYLKGAQGRRFISDQSRRKDLSDRPLPERRSPNPQLLTIPEAATILLASLQKSPEDEEKNFDQTRFLEDSLLNW
modifications: Spexin
notes: novel adipokine, a peptide of 14 amino acids of the galanin family; purchased from Tocris
abundance (%) of beige precursors in the SVF of EAT [1]: no changes were observed in either of the two AT depots studied
abundance (%) of beige precursors in the SVF of IAT [1]: no changes were observed in either of the two AT depots studied
plasma SPX levels at end of protocol ([2]; day 10 of SPX 29 µg/kg/day, RT or cold, ELISA, n = 6–7): did not differ between groups
plasma SPX levels 1 h after SPX injection vs. basal ([2]; mice, single ip. injection SPX 29 µg/kg, 1 h, plasma ELISA): two-fold higher than basal ones
plasma SPX levels 3 h after SPX injection vs. basal ([2]; mice, single ip. injection SPX 29 µg/kg, 3 h, plasma ELISA): back to basal levels
SPX half-life in plasma ([2]; mice, single ip. injection SPX 29 µg/kg, plasma ELISA at 10, 20, 60, 180, 360 minutes): short
viability or proliferation of preadipocytes (preadipocytes): does not affect
terminal differentiation of white 3T3-L1 adipocytes (3T3-L1 adipocytes): inhibits
galr2 mRNA expression in EAT (galr2; S p < 0.01): decreased in both groups treated with SPX
galr2 mRNA expression in IAT (galr2; S p < 0.01): decreased in both groups treated with SPX
galr2 mRNA expression in BAT (galr2; Supplementary Figure S3): no differences were found
